Data reported in paper PMC6158489.
Several values for one entry are separate records, joined by “and”; a condition that tells them apart may be missing. Identical values can stand only once.

Test system: VpsR (Vibrio cholerae)
Assay: EMSA

## PvpsL promoter fragment (-97 to +113)
  Kd: 2220 nM and 1660 nM
